In article PMC9482650, “Quantitative fragmentomics allow affinity mapping of interactomes” (Nature Communications, 2022):

T1: ARHGEF11, O15085
T1 sequence (O15085 42-136, limits assumed, looked up): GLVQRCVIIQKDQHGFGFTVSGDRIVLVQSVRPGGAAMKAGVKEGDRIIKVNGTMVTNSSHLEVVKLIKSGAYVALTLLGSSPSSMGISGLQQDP

T2: DLG3_1, Q92796
T2 sequence (Q92796 125-227, limits assumed, looked up): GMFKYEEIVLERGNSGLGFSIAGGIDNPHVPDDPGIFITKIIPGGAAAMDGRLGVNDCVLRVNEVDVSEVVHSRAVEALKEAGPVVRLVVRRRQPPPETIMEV

T3: DLG3_2, Q92796
T3 sequence (Q92796 221-321, limits assumed, looked up): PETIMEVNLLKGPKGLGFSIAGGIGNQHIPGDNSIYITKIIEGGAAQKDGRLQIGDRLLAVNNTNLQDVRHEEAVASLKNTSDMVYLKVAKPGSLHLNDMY

T4: GRIP1_5, Q9Y3R0
T4 sequence (Q9Y3R0 568-668, limits assumed, looked up): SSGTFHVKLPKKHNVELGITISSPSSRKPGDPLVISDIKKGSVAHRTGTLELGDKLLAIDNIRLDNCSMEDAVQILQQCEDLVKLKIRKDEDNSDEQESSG

T5: LIN7A, O14910
T5 sequence (O14910 103-200, limits assumed, looked up): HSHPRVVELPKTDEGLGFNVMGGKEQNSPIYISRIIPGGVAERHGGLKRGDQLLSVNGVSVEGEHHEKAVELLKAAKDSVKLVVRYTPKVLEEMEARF

T6: MPP6, Q9NZW5
T6 sequence (Q9NZW5 125-219, limits assumed, looked up): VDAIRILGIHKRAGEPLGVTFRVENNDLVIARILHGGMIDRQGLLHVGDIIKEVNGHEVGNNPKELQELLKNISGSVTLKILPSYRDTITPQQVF

T7: RADIL, Q96JH8
T7 sequence (Q96JH8 971-1071, limits assumed, looked up): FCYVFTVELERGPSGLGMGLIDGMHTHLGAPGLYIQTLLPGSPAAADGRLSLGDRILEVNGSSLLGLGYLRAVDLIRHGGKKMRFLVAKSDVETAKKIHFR

T8: SHANK1, Q9Y566
T8 sequence (Q9Y566 658-767, limits assumed, looked up): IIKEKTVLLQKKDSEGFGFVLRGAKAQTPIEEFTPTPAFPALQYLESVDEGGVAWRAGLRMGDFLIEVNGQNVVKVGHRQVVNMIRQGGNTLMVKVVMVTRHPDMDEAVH

T9: SIPA1L2, Q9P2F8
T9 sequence (Q9P2F8 945-1036, limits assumed, looked up): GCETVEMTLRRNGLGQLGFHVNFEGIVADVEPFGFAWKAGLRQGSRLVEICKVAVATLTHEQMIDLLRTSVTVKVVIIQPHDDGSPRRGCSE


Tests used:
Assay in all cases: holdup assay
Parameters in all cases: key: below the threshold = too weak to quantify, mostly under pKd 3.1 to 4
Conditions in all cases: plain residues with an end cap or a label only (N-terminal biotin on a linker: ado-ado)
AHNAK1, Q09666 = molecular target: AHNAK1, Q09666
Sequence of AHNAK1, Q09666 (Q09666 4-100): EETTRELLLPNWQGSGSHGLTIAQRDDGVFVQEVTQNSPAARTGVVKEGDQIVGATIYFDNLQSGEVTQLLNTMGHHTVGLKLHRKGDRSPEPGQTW

ARHGEF11, O15085 = molecular target: T1, ARHGEF11, O15085
DLG1_1, Q12959 = molecular target: DLG1_1, Q12959
DLG1_3, Q12959 = molecular target: DLG1_3, Q12959
DLG3_1, Q92796 = molecular target: T2, DLG3_1, Q92796
DLG3_2, Q92796 = molecular target: T3, DLG3_2, Q92796
DLG4_2, P78352 = molecular target: DLG4_2, P78352
Sequence of DLG4_2, P78352 (P78352 155-259): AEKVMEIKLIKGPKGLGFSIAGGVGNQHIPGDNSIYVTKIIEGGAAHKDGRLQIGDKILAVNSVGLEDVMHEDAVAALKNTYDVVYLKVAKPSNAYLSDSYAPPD

DLG4_3, P78352 = molecular target: DLG4_3, P78352
Sequence of DLG4_3, P78352 (P78352 306-403): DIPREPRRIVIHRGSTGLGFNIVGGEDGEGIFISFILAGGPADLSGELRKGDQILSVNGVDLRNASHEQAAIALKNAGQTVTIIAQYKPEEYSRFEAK

FRMPD3, Q5JV73 = molecular target: FRMPD3, Q5JV73
Sequence of FRMPD3, Q5JV73 (Q5JV73 12-100): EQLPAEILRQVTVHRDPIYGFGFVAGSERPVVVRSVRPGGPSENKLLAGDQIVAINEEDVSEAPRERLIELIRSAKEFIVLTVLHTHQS

GOPC, Q9HD26 = molecular target: GOPC, Q9HD26
GORASP2, Q9H8Y8 = molecular target: GORASP2, Q9H8Y8
GRASP, Q7Z6J2 = molecular target: GRASP, Q7Z6J2
Sequence of GRASP, Q7Z6J2 (Q7Z6J2 96-193): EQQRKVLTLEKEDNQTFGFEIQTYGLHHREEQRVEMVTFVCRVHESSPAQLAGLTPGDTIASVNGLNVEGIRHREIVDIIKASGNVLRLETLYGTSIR

GRIP1_5, Q9Y3R0 = molecular target: T4, GRIP1_5, Q9Y3R0
IL16_1, Q14005 = molecular target: IL16_1, Q14005
Sequence of IL16_1, Q14005 (Q14005 210-306): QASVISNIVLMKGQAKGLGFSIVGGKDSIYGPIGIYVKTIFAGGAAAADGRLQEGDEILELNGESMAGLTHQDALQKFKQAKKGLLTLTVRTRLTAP

LDB3, O75112 = molecular target: LDB3, O75112
Sequence of LDB3, O75112 (O75112 1-94): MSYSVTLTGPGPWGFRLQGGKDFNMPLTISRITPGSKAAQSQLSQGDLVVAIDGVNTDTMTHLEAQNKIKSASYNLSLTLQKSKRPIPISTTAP

LIN7A, O14910 = molecular target: T5, LIN7A, O14910
MAGI1_2, Q96QZ7 = molecular target: MAGI1_2, Q96QZ7
Sequence of MAGI1_2, Q96QZ7 (Q96QZ7 456-580): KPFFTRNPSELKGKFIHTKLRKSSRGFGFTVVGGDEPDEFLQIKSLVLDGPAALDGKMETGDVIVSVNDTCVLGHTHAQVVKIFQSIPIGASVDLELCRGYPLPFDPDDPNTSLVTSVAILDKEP

MAGI2_2, Q86UL8 = molecular target: MAGI2_2, Q86UL8
Sequence of MAGI2_2, Q86UL8 (Q86UL8 410-522): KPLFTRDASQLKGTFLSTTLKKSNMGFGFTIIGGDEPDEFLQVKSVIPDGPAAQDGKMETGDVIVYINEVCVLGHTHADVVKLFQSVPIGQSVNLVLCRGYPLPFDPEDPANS

MAGI3_2, Q5TCQ9 = molecular target: MAGI3_2, Q5TCQ9
Sequence of MAGI3_2, Q5TCQ9 (Q5TCQ9 398-503): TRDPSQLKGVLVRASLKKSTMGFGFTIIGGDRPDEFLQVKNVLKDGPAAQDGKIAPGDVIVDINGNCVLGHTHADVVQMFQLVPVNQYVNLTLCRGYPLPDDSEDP

MPP6, Q9NZW5 = molecular target: T6, MPP6, Q9NZW5
PDLIM1, O00151 = molecular target: PDLIM1, O00151
Sequence of PDLIM1, O00151 (O00151 1-87): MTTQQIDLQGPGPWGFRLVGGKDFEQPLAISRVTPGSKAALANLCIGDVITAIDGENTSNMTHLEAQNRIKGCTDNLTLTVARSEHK

RADIL, Q96JH8 = molecular target: T7, RADIL, Q96JH8
SCRIB_2, Q14160 = molecular target: SCRIB_2, Q14160
Sequence of SCRIB_2, Q14160 (Q14160 857-960): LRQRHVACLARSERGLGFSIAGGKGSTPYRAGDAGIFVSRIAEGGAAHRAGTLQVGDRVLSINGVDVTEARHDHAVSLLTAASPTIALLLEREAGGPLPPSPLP

SCRIB_3, Q14160 = molecular target: SCRIB_3, Q14160
Sequence of SCRIB_3, Q14160 (Q14160 999-1103): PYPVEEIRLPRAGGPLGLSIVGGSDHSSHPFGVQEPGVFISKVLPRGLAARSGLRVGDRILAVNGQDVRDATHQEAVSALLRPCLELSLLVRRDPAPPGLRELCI

SHANK1, Q9Y566 = molecular target: T8, SHANK1, Q9Y566
SIPA1L2, Q9P2F8 = molecular target: T9, SIPA1L2, Q9P2F8
TJP1_2, Q07157 = molecular target: TJP1_2, Q07157
Sequence of TJP1_2, Q07157 (Q07157 181-274): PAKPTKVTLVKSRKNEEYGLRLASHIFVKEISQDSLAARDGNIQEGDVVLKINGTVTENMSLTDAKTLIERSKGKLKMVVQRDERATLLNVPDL

TJP2_1, Q9UDY2 = molecular target: TJP2_1, Q9UDY2
Sequence of TJP2_1, Q9UDY2 (Q9UDY2 24-128): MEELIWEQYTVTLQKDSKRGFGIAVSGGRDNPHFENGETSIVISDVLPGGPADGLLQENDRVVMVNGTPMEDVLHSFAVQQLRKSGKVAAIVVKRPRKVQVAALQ

Row | Binder | pKd (AHNAK1, Q09666) | pKd (ARHGEF11, O15085) | pKd (DLG1_1, Q12959) | pKd (DLG1_3, Q12959) | pKd (DLG3_1, Q92796) | pKd (DLG3_2, Q92796) | pKd (DLG4_2, P78352) | pKd (DLG4_3, P78352) | pKd (FRMPD3, Q5JV73) | pKd (GOPC, Q9HD26) | pKd (GORASP2, Q9H8Y8) | pKd (GRASP, Q7Z6J2) | pKd (GRIP1_5, Q9Y3R0) | pKd (IL16_1, Q14005) | pKd (LDB3, O75112) | pKd (LIN7A, O14910) | pKd (MAGI1_2, Q96QZ7) | pKd (MAGI2_2, Q86UL8) | pKd (MAGI3_2, Q5TCQ9) | pKd (MPP6, Q9NZW5) | further results
1 | SSALYGESDL [ACTN2, P35609] | below the threshold | below the threshold | below the threshold | 3.75 | below the threshold | 4.18 | 3.61 | below the threshold | below the threshold | below the threshold | below the threshold | 3.93 | below the threshold | below the threshold | 4.4 | below the threshold | below the threshold | below the threshold | below the threshold | below the threshold | pKd (PDLIM1, O00151): 4.75; pKd (RADIL, Q96JH8): below the threshold; pKd (SCRIB_2, Q14160): 4.06; pKd (SCRIB_3, Q14160): 5.1; pKd (SHANK1, Q9Y566): 3.91; pKd (SIPA1L2, Q9P2F8): below the threshold; pKd (TJP1_2, Q07157): below the threshold; pKd (TJP2_1, Q9UDY2): below the threshold
2 | GQEEQVTTRL [TRPC5, Q9UL62] | below the threshold | 4.37 | below the threshold | below the threshold | below the threshold | 3.97 | below the threshold | below the threshold | below the threshold | 4.83 | below the threshold | 4.63 | below the threshold | below the threshold | below the threshold | below the threshold | below the threshold | below the threshold | below the threshold | below the threshold | pKd (PDLIM1, O00151): below the threshold; pKd (RADIL, Q96JH8): below the threshold; pKd (SCRIB_2, Q14160): below the threshold; pKd (SCRIB_3, Q14160): 4.22; pKd (SHANK1, Q9Y566): 5.61; pKd (SIPA1L2, Q9P2F8): below the threshold; pKd (TJP1_2, Q07157): below the threshold; pKd (TJP2_1, Q9UDY2): below the threshold
3 | NLSIEKETKL [ASNSD1, Q9NWL6] | below the threshold | below the threshold | below the threshold | 3.53 | below the threshold | 4.24 | 3.54 | below the threshold | below the threshold | below the threshold | below the threshold | below the threshold | below the threshold | below the threshold | below the threshold | below the threshold | below the threshold | below the threshold | below the threshold | below the threshold | pKd (PDLIM1, O00151): below the threshold; pKd (RADIL, Q96JH8): below the threshold; pKd (SCRIB_2, Q14160): below the threshold; pKd (SCRIB_3, Q14160): 4.97; pKd (SHANK1, Q9Y566): 4.52; pKd (SIPA1L2, Q9P2F8): below the threshold; pKd (TJP1_2, Q07157): below the threshold; pKd (TJP2_1, Q9UDY2): below the threshold
4 | SKENVQETQI [LRRC4B, Q9NT99] | below the threshold | below the threshold | 4.23 | 3.77 | 3.73 | 4.69 | 4.55 | below the threshold | below the threshold | 3.99 | below the threshold | below the threshold | below the threshold | below the threshold | below the threshold | below the threshold | below the threshold | below the threshold | 4.37 | below the threshold | pKd (PDLIM1, O00151): below the threshold; pKd (RADIL, Q96JH8): below the threshold; pKd (SCRIB_2, Q14160): 4.27; pKd (SCRIB_3, Q14160): 4.88; pKd (SHANK1, Q9Y566): 3.98; pKd (SIPA1L2, Q9P2F8): below the threshold; pKd (TJP1_2, Q07157): below the threshold; pKd (TJP2_1, Q9UDY2): below the threshold
5 | EVNETDDTKM [KCNJ1, P48048] | below the threshold | 3.7 | below the threshold | below the threshold | below the threshold | 3.63 | 3.59 | below the threshold | below the threshold | below the threshold | below the threshold | 3.77 | below the threshold | below the threshold | below the threshold | 3.52 | below the threshold | below the threshold | below the threshold | below the threshold | pKd (PDLIM1, O00151): below the threshold; pKd (RADIL, Q96JH8): 3.56; pKd (SCRIB_2, Q14160): 3.83; pKd (SCRIB_3, Q14160): 3.67; pKd (SHANK1, Q9Y566): 3.73; pKd (SIPA1L2, Q9P2F8): below the threshold; pKd (TJP1_2, Q07157): below the threshold; pKd (TJP2_1, Q9UDY2): below the threshold
